In patent US20080058263A1 (published 2008):

Legend:
Experiment in all cases: receptor-Fc IP
[1] = molecular target: T1, VEGFR-3-Fc (UniProt P35916 25-328)
T1 construct: domain: first three Ig domains; conditioned supernatant of 293T cells; also called VEGFR-3-Fc fusion protein; not shown: Fc fragment of the pIg vector
T1 sequence (looked up): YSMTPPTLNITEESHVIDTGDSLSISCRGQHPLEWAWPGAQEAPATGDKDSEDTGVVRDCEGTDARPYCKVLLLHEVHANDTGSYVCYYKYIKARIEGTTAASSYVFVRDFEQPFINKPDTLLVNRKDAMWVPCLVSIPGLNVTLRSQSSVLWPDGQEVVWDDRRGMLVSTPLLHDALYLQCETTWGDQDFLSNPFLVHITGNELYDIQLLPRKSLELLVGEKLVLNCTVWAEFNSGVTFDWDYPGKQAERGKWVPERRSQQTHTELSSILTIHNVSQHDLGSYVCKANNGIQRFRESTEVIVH
Procedure, shortened: (§1)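 Binding of ligand from sample supernatant measured by pentahistidine-antibody immunoprecipitation. IP mix: PBS with 1.5% BSA, 0.06% Tween 20, 3 μg/ml heparin and 400 ng/ml fusion protein, added 1:2 to sample supernatant.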

[2] = molecular target: T2, VEGFR-1-Fc (UniProt P17948 27-338)
T2 construct: domain: first three Ig domains; expressed in Drosophila S2 cells, purified on Protein A sepharose; also called VEGFR-1-Fc fusion protein; not shown: Fc fragment from the Signal-pIgPlus vector
T2 sequence (P17948 27-338): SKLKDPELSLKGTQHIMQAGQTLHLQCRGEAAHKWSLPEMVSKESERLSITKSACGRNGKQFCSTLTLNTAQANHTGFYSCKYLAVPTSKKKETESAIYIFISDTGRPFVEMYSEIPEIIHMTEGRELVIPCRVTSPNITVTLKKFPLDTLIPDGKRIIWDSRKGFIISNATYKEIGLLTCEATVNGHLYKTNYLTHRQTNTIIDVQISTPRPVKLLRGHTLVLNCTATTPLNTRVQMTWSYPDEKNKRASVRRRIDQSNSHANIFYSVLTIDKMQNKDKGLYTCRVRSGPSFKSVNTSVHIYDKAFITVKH
Procedure, shortened: as §1

[3] = molecular target: T3, VEGFR-2-Fc (UniProt P35968 20-322)
T3 construct: domain: first 3 Ig domains; conditioned supernatant of 293T cells; also called VEGFR-2-Fc fusion protein; not shown: Fc fragment of the pIg vector
T3 sequence (P35968 20-322): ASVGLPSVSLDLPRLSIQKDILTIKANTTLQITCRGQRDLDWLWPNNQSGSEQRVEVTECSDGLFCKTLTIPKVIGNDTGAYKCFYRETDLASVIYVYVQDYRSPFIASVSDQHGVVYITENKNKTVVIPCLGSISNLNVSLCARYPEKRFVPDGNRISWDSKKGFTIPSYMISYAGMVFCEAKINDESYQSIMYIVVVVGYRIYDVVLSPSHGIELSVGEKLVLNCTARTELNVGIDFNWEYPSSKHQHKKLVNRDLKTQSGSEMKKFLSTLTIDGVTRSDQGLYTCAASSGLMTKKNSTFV
Procedure, shortened: as §1

Measured: binding result

B1: 21-15 (ligand)
chain: AHYNTEILKSIDNEWRKTQCMPREVCIDVGKEYPDEIEYIFKPSCVPLMRCGGCCNSEGLQCVPTEESNITMQIMRITVPLSQGPKPVTISFANHTSCRCMSKLD
no binding: all assays above

B2: 52-6 (ligand)
chain: AHYNTEILKSIDNEWRKTQCMPIETLVDIFQEFGVATNTFFKPPCVSVYRCGGCCNDEGLECMNTSTSYLSKTLFEIKPHQGQHIGEMSFANHTSCRCMSKLD
no binding: all assays above

B3: 52-8 (ligand)
chain: AHYNTEILKSIDNEWRKTQCMPIETLVDIFQEFGVATNTFFKPPCVSVYRCGGCCNSEGLQCMNTSTSYLSKTLFEIKPHQGQHIGEMSFANHTSCRCMSKLD
no binding: all assays above

B4: 51-9 (ligand)
chain: AHYNTEILKSIDNEWRKTQCMPIETLVDIFQEYPDEIEYIFKPSCVPLMRCGGCCNDEGLECVPTEESNITMQIMRITVPLSQGPKPVTISFLQHNKCECRPKKD
no binding: all assays above

B5: 53-9 (ligand)
chain: AHYNTEILKSIDNEWRKTQCMPIETLVDIFQEYPDEIEYIFKPPCVSVYRCGGCCNDEGLECVPTEESNITMQIMRITVPLSQGPKPVTISFLQHNKCECRPKKD
no binding: all assays above

B6: 51-13 (ligand)
chain: AHYNTEILKSIDNEWRKTQCMPIETLVDIFQEYPDEIEYIFKPSCVPLMRCGGCCNDEGLECVPTEESNITMQIMRITVPLSQGPKPVTISFANHTSCRCMSKLD
no binding: all assays above

B7: 53-11 (ligand)
chain: AHYNTEILKSIDNEWRKTQCMPIETLVDIFQEYPDEIEYIFKPPCVSVYRCGGCCNSEGLQCVPTEESNITMQIMRITVPLSQGPKPVTISFLQHNKCECRPKKD
no binding: all assays above

B8: 51-15 (ligand)
chain: AHYNTEILKSIDNEWRKTQCMPIETLVDIFQEYPDEIEYIFKPSCVPLMRCGGCCNSEGLQCVPTEESNITMQIMRITVPLSQGPKPVTISFANHTSCRCMSKLD
no binding: all assays above

B9: 51-11 (ligand)
chain: AHYNTEILKSIDNEWRKTQCMPIETLVDIFQEYPDEIEYIFKPSCVPLMRCGGCCNSEGLQCVPTEESNITMQIMRITVPLSQGPKPVTISFLQHNKCECRPKKD
no binding: all assays above

B10: 52-1 (ligand)
chain: AHYNTEILKSIDNEWRKTQCMPIETLVDIFQEFGVATNTFFKPPCVSVYRCGGCCNDEGLECVPTEESNITMQIMRIKPHQGQHIGEMSFLQHNKCECRPKKD
no binding: all assays above

B11: 52-3 (ligand)
chain: AHYNTEILKSIDNEWRKTQCMPIETLVDIFQEFGVATNTFFKPPCVSVYRCGGCCNSEGLQCVPTEESNITMQIMRIKPHQGQHIGEMSFLQHNKCECRPKKD
no binding: all assays above

B12: 52-7 (ligand)
chain: AHYNTEILKSIDNEWRKTQCMPIETLVDIFQEFGVATNTFFKPPCVSVYRCGGCCNSEGLQCVPTEESNITMQIMRIKPHQGQHIGEMSFANHTSCRCMSKLD
no binding: all assays above

B13: 51-8 (ligand)
chain: AHYNTEILKSIDNEWRKTQCMPIETLVDIFQEYPDEIEYIFKPSCVPLMRCGGCCNSEGLQCMNTSTSYLSKTLFEIKPHQGQHIGEMSFANHTSCRCMSKLD
no binding: all assays above

B14: 51-5 (ligand)
chain: AHYNTEILKSIDNEWRKTQCMPIETLVDIFQEYPDEIEYIFKPSCVPLMRCGGCCNDEGLECVPTEESNITMQIMRIKPHQGQHIGEMSFANHTSCRCMSKLD
no binding: all assays above

B15: 51-7 (ligand)
chain: AHYNTEILKSIDNEWRKTQCMPIETLVDIFQEYPDEIEYIFKPSCVPLMRCGGCCNSEGLQCVPTEESNITMQIMRIKPHQGQHIGEMSFANHTSCRCMSKLD
no binding: all assays above

B16: 31-2 (ligand)
chain: GQNHHEVVKSIDNEWRKTQCMPIETLVDIFQEYPDEIEYIFKPSCVPLMRCGGCCNDEGLECVPTEESNITMQIMRIKPHQGQHIGEMSFANHTSCRCMSKLD
no binding: all assays above

B17: 53-5 (ligand)
chain: AHYNTEILKSIDNEWRKTQCMPIETLVDIFQEYPDEIEYIFKPPCVSVYRCGGCCNDEGLECVPTEESNITMQIMRIKPHQGQHIGEMSFANHTSCRCMSKLD
no binding: all assays above

B18: 53-13 (ligand)
chain: AHYNTEILKSIDNEWRKTQCMPIETLVDIFQEYPDEIEYIFKPPCVSVYRCGGCCNDEGLECVPTEESNITMQIMRITVPLSQGPKPVTISFANHTSCRCMSKLD
no binding: all assays above
